This note sets out measurements from paper PMC5832925, “Hypoxia-inducible lipid droplet-associated protein inhibits adipose triglyceride lipase” (Journal of Lipid Research, 2018).

Experiment [1] concerns the target T1, sf-GFP-mATGL288 (mouse ATGL residues 1-288 fused to superfolder GFP) (mouse) (UniProt Q8BJ56).
T1 sequence: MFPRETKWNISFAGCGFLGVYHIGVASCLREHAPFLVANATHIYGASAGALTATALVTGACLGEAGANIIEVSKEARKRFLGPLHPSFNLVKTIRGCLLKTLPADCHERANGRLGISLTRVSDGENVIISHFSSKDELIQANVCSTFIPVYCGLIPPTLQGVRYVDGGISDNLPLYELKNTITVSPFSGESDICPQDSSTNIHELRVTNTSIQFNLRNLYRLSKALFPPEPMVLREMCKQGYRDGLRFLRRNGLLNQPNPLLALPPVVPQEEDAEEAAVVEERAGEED

For experiment [2], the target named is T2, sf-GFP-mATGL288 (mouse ATGL residues 1-288 fused to superfolder GFP) (mouse, UniProt Q8BJ56 1-288).
T2 sequence (looked up): T1 sequence
Put plainly: cell-based or functional assay.

The target in experiment [3] is T2, sf-GFP-mATGL288 (mouse ATGL residues …). Nature of the experiment: MST; Monolith NT.115; smt3-tagged hHILPDA 1.1 μM to 487 μM titrated against 0.01 μM sf-GFP-mATGL_288; 20 mM phosphate, 300 mM NaCl, 1 mM EDTA, 1 mM DTT pH 7.0, 1% BSA; room temperature; triplicate. The following applies: both partners purified.

As to MKHVLNLYLLGVVLTLLSIFVRVM (domain or fragment) [hHILPDA_1-24 (6XHis-smt3-TEV fusion)], the IC50 of inhibition of TGH activity of mATGL288 lysate (without sf-GFP) with CGI-58; HILPDA 1-24 44 nM to 44 μM in experiment [1] came out at 5.4 µM. In experiment [1], MKHVLNLYLLGVVLTLLSIFVRVMESLE (domain or fragment) [hHILPDA_1-28 (6XHis-smt3-TEV fusion)] had an IC50 of inhibition of TGH activity of mATGL288 lysate (without sf-GFP) with CGI-58; HILPDA 1-28 44 nM to 44 μM of 5 µM.

B1: 6XHis-smt3-TEV-hHILPDA (human hypoxia-inducible lipid droplet-associated protein, full length) (natural protein, UniProt Q9Y5L2 1-63, looked up)
chain: MKHVLNLYLLGVVLTLLSIFVRVMESLEGLLESPSPGTSWTTRSQLANTEPTKGLPDHPSRSM
notes: human HILPDA (Hig-2), 63 amino acids, construct hHILPDA_1-63 in a modified pSUMO vector with 6XHis tag and TEV site; The fusion protein (22 kDa) was used without removal of smt3; a TEV site lies between smt3 and HILPDA; also called smt3-HILPDA fusion protein; source: E. coli BL21-CodonPlus (DE3)-RIL, purified (HisTrap FF, Superdex 200); not shown: smt3, N-terminal, kept
B1: the “IC50 of inhibition of TGH activity of mATGL288 lysate (without sf-GFP) with CGI-58; HILPDA 44 nM to 44 μM” value in experiment [2] was determined as 1.9 µM. Besides, the Kd in experiment [3] stood at 247 µM.
